Test results: paper PMC9061753, “Mre11-Rad50 oligomerization promotes DNA double-strand break repair” (Nature Communications, 2022)

Columns and labels:
Mre11-Rad50 (MRwt) [1] = biological target: T1, Mre11-Rad50 (MRwt) (S. cerevisiae, UniProt P32829;P12753 1-692;1-1312); test: EMSA; ATPgS, 5 mM Mg2+, 30 mM NaCl; mean of the 2 visible of 3 replicates (4.948, 4.099); apparent; Oligo EMSA: 25 mM Tris acetate pH 7.5, 1 mM DTT, 0.25 mg/ml BSA, 5 mM Mg acetate, 1 mM ATPgS, 30 mM NaCl, 30 C 15 min, 100 nM bp DNA; plasmid EMSA: 80 mM KCl, plus 1 mM MnCl2, 30 C 1 h; mass photometry 25 mM KCl; conditions: protein: recombinant; tags: Mre11-6xHis; Rad50 untagged; chain copies: 2;2; label: 3'-32P on top strand; 1-nt 5' overhangs as printed
T1 sequence (P32829 whole entry, chain 1 of 2): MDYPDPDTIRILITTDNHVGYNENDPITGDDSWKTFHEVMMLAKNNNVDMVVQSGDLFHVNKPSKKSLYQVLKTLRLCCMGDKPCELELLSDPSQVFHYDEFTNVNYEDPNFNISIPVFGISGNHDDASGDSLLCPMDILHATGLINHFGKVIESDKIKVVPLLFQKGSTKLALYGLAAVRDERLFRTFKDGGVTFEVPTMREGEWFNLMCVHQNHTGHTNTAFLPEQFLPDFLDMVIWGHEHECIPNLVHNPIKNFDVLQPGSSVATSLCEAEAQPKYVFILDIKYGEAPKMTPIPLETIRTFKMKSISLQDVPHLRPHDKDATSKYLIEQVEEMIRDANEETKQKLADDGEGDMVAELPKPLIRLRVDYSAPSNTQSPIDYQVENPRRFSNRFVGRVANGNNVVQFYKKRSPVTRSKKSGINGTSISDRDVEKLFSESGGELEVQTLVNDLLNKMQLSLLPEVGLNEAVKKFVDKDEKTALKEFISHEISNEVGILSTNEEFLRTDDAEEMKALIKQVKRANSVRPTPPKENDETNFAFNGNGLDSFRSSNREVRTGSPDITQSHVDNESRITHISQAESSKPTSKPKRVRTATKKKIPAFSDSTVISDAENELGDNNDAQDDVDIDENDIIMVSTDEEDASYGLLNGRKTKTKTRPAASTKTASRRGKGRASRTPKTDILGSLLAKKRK
T1 sequence (P12753 whole entry, chain 2 of 2): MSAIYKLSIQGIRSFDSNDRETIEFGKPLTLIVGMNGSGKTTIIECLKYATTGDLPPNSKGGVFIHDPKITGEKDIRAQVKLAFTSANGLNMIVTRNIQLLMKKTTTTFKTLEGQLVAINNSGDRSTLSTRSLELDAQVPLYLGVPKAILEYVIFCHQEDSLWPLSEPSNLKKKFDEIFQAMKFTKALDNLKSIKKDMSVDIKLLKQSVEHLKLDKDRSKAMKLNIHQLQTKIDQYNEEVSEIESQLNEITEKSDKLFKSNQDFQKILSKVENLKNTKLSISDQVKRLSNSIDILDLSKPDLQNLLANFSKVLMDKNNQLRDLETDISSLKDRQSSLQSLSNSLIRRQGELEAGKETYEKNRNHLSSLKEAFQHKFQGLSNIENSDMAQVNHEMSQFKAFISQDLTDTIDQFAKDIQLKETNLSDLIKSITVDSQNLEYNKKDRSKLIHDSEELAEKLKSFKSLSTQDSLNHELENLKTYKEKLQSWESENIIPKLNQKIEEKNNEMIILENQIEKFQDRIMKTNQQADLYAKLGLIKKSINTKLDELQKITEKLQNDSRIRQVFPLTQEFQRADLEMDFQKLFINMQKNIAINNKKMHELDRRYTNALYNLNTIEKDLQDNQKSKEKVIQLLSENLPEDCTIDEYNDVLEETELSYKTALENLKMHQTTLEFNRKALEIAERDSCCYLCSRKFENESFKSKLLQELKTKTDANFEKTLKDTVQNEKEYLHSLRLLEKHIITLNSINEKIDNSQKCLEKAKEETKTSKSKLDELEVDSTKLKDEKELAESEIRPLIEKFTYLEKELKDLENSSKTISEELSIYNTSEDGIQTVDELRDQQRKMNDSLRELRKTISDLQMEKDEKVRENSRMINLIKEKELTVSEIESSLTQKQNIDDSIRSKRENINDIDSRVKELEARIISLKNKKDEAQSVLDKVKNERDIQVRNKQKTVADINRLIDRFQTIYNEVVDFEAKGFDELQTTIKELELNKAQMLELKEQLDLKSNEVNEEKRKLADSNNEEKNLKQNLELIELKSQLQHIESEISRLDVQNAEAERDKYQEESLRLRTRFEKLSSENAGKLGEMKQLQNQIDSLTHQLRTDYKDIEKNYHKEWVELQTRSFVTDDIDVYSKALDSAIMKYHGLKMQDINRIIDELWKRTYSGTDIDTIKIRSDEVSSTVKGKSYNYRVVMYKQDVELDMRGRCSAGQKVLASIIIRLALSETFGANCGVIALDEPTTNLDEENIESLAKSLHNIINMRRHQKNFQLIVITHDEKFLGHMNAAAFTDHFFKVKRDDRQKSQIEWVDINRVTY

Mre11-Rad50 (MRwt) [2] = biological target: T1, Mre11-Rad50 (MRwt); test: EMSA; ATPgS, 5 mM Mg2+, 30 mM NaCl; mean of the 2 visible of 3 replicates (6.248, 7.406); apparent; Oligo EMSA: 25 mM Tris acetate pH 7.5, 1 mM DTT, 0.25 mg/ml BSA, 5 mM Mg acetate, 1 mM ATPgS, 30 mM NaCl, 30 C 15 min, 100 nM bp DNA; plasmid EMSA: 80 mM KCl, plus 1 mM MnCl2, 30 C 1 h; mass photometry 25 mM KCl; conditions: protein: recombinant; tags: Mre11-6xHis; Rad50 untagged; chain copies: 2;2; label: 3'-32P on BIO100C; blunt before 3' labeling

B1: 197 bp EMSA (197mer) (dsDNA)
DNA 1: GCTTCGTATGTTTCTCCTGCTTATCACCTTCTTGAAGGCTTCCCATTCATTCAGGAACCGCCTTCTGGTGATTTGCAAGAACGCGTACTTATTCGCCACCATGATTATGACCAGTGTTTCCAGTCCGTTCAGTTGTTGCAGTGGAATAGTCAGGTTAAATTTAATGTGACCGTTTATCGCAATCTGCCGACCACTCG
DNA 2: GCGAGTGGTCGGCAGATTGCGATAAACGGTCACATTAAATTTAACCTGACTATTCCACTGCAACAACTGAACGGACTGGAAACACTGGTCATAATCATGGTGGCGAATAAGTACGCGTTCTTGCAAATCACCAGAAGGCGGTTCCTGAATGAATGGGAAGCCTTCAAGAAGGTGATAAGCAGGAGAAACATACGAAG
B1 gave a Kd (Mre11-Rad50 (MRwt) [1]) of about 4.52 nM.

B2: 100 bp EMSA (BIO100C/BIO100) (dsDNA)
DNA 1: GATGCAGGAGGCTGCTACGACCATGGCAGAAGATTATGAGGTGGAGTACGCGCCCGGGGAGCCCAAGGGCACGCCCTGGCACCCGCACCGCGGCACTTAC
DNA 2: GTAAGTGCCGCGGTGCGGGTGCCAGGGCGTGCCCTTGGGCTCCCCGGGCGCGTACTCCACCTCATAATCTTCTGCCATGGTCGTAGCAGCCTCCTGCATC
modifications: biotin position marked in table
B2 was tested, and the Kd (Mre11-Rad50 (MRwt) [2]) was about 6.83 nM.
